The supplement of paper PMC10724198
± gives the standard deviation of the averaged measurements.

Test system: Saccharomyces cerevisiae
Experiment: protein stability index of tFT-peptide fusion (C-terminal peptide) (PSI (0-1 scale)); higher = more stable (slower turnover)
Conditions: temperature: 30 C
Description: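 MPS profiling in S. cerevisiae of the yeast C-terminome library: the last 12 aa of each annotated ORF are fused to the C-terminus of a sfGFP-mCherry timer, after a GGGS linker. Cells are FACS-sorted into 8 mCherry/sfGFP bins and deep-sequenced. PSI runs from 0 (unstable) to 1 (stable); wild type and das1Δ backgrounds, two technical replicates each.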

[1] = genetic background: das1 deletion

Sequence	protein stability index [1]	protein stability index (genetic background: wild type)
MFKCARQSEFDK [MTG2 C-terminal 12 aa]	0.6881 ± 0.0066	0.6829 ± 0.0037
MKKLQNKKSSAV [CAB5 C-terminal 12 aa]	0.695 ± 0.05	0.677 ± 0.021
MQRVSTQHEKSS [PMA2 C-terminal 12 aa]	0.693 ± 0.024	0.711 ± 0.096
MQTHYILMKAQW [PPM1 C-terminal 12 aa]	0.579 ± 0.008	0.5353 ± 0.0021
MSSFLSKKENNN [SNT1 C-terminal 12 aa]	0.722 ± 0.024	0.6618 ± 0.005
MTGTCFMTDLAP [YKL097C C-terminal 12 aa]	0.721 ± 0.024	0.695 ± 0.021
MTLDSWQPLTPK [INP53 C-terminal 12 aa]	0.723 ± 0.016	0.712 ± 0.03
NEEYIEELDLVL [HSH155 C-terminal 12 aa]	0.696 ± 0.0089	0.674 ± 0.015
NFQTHYRDELLQ [REH1 C-terminal 12 aa]	0.729 ± 0.054	0.584 ± 0.016
NFVSQYRNDEIY [YOR381W-A C-terminal 12 aa]	0.688 ± 0.032	0.659 ± 0.023
NGHVSKKAKVTK [LYS21 C-terminal 12 aa]	0.6885 ± 0.0043	0.667 ± 0.021
NIAPFPFFGKRR [PMD1 C-terminal 12 aa]	0.6837 ± 0.00075	0.674 ± 0.02
NIEKGVNFVASK [MDH1 C-terminal 12 aa]	0.6837 ± 0.0049	0.677 ± 0.052
NIGDFSPDLMDS [MSS11 C-terminal 12 aa]	0.684 ± 0.011	0.713 ± 0.0096
NIKALNQSKSHM [SPO77 C-terminal 12 aa]	0.684 ± 0.022	0.6701 ± 0.003
NKKPKNKKKGRK [SRP72 C-terminal 12 aa]	0.6842 ± 0.005	0.646 ± 0.0076
NKRLKKILNNTK [RME1 C-terminal 12 aa]	0.702 ± 0.014	0.674 ± 0.023
NKVEAFKSLYTF [NUP60 C-terminal 12 aa]	0.705 ± 0.028	0.591 ± 0.013
NLKNGVTLESPE [UBP12 C-terminal 12 aa]	0.716 ± 0.01	0.6889 ± 0.0028
NLMVADDKVWRV [MCM3 C-terminal 12 aa]	0.696 ± 0.017	0.7005 ± 0.0019
NLVASKQLSTYK [RAV2 C-terminal 12 aa]	0.694 ± 0.0082	0.641 ± 0.031

Sequence	protein stability index [1]	protein stability index (genetic background: wild type)
NMLFICLNVPHY [YGL114W C-terminal 12 aa]	0.6561 ± 0.0045	0.632 ± 0.007
NNASEDDRGIRV [STB2 C-terminal 12 aa]	0.6973 ± 0.0012	0.685 ± 0.089
NNIKWYLHWKFI [VPR1 C-terminal 12 aa]	0.684 ± 0.033	0.168 ± 0.019
NNNMESFPEMSP [GLE1 C-terminal 12 aa]	0.726 ± 0.013	0.72 ± 0.017
NNNNNNNDDDDK [CTK1 C-terminal 12 aa]	0.694 ± 0.021	0.691 ± 0.028
NQAIQYANEFQQ [HOG1 C-terminal 12 aa]	0.701 ± 0.022	0.715 ± 0.043
NQRKANDNKRRR [RRP17 C-terminal 12 aa]	0.7188 ± 0.001	0.77 ± 0.058
NQRSFNDKSKRD [CAX4 C-terminal 12 aa]	0.692 ± 0.009	0.6901 ± 0.0064
NSFDGLLVYLSN [CBF2 C-terminal 12 aa]	0.6572 ± 0.0033	0.6615 ± 0.0065
NSIVKQFKEIFK [AIM41 C-terminal 12 aa]	0.709 ± 0.028	0.67 ± 0.0096
NSSSNESIQVVV [SFK1 C-terminal 12 aa]	0.706 ± 0.043	0.696 ± 0.037
NTLRISTVGQEF [PYK2 C-terminal 12 aa]	0.7106 ± 0.0029	0.707 ± 0.0074
NTSGQKPNEYNY [APA1 C-terminal 12 aa]	0.7049 ± 0.0049	0.698 ± 0.018
NVGVIRPLLDLQ [YGR069W C-terminal 12 aa]	0.743 ± 0.026	0.729 ± 0.015
NVTKLAKERVLF [CPA1 C-terminal 12 aa]	0.6847 ± 0.0048	0.703 ± 0.055
NVYRLTLMIFRL [YMR013W-A C-terminal 12 aa]	0.428 ± 0.016	0.249 ± 0.0095
NWVRYSSIYYQL [YDR194W-A C-terminal 12 aa]	0.695 ± 0.013	0.14 ± 0.011
NYPELPRLTFST [RFU1 C-terminal 12 aa]	0.704 ± 0.018	0.691 ± 0.0092
NYRLEEQDVLTW [LYS14 C-terminal 12 aa]	0.721 ± 0.037	0.693 ± 0.058
PAAISGTVPSIF [DIN7 C-terminal 12 aa]	0.715 ± 0.021	0.677 ± 0.017
PAKFGIQFQYST [MDM10 C-terminal 12 aa]	0.697 ± 0.021	0.662 ± 0.038

Sequence	protein stability index [1]	protein stability index (genetic background: wild type)
PCTASITSLISF [YDR269C C-terminal 12 aa]	0.709 ± 0.012	0.731 ± 0.03
PDEISFLQQFTS [KAP104 C-terminal 12 aa]	0.721 ± 0.0076	0.676 ± 0.023
PEAEGPTVEEVD [SSA1 C-terminal 12 aa]	0.703 ± 0.02	0.694 ± 0.019
PELSSTVSHNRA [WSC3 C-terminal 12 aa]	0.693 ± 0.035	0.783 ± 0.07
PEMTRRGRGPRR [RPA49 C-terminal 12 aa]	0.714 ± 0.022	0.673 ± 0.033
PFPLLRLSAPFK [OST3 C-terminal 12 aa]	0.72 ± 0.0091	0.749 ± 0.061
PFPLPSTERVIF [ADY2 C-terminal 12 aa]	0.723 ± 0.02	0.73 ± 0.023
PHYAGCLEDIIF [YER066C-A C-terminal 12 aa]	0.719 ± 0.046	0.74 ± 0.035
PIKEVLLENWDQ [PUS5 C-terminal 12 aa]	0.715 ± 0.017	0.683 ± 0.024
PIRTPDAKKPKI [BUR2 C-terminal 12 aa]	0.715 ± 0.013	0.8 ± 0.13
PIVHYISDRRTV [ARC15 C-terminal 12 aa]	0.682 ± 0.013	0.688 ± 0.0093
PKETLHRSDHQG [YPR039W C-terminal 12 aa]	0.6938 ± 0.0051	0.689 ± 0.076
PKFSKPDPLKRD [SAC1 C-terminal 12 aa]	0.72 ± 0.01	0.6853 ± 0.005
PLGEVDLNSFKN [YHP1 C-terminal 12 aa]	0.691 ± 0.019	0.682 ± 0.034
PLLELVMELRDR [MOB1 C-terminal 12 aa]	0.726 ± 0.051	0.736 ± 0.01
PLRLLIRPVGEL [YOR248W C-terminal 12 aa]	0.679 ± 0.008	0.673 ± 0.042
PLWNQRRDDLFH [NIT2 C-terminal 12 aa]	0.74 ± 0.042	0.744 ± 0.055
PMALFGIFAVAL [AFB1 C-terminal 12 aa]	0.5769 ± 0.0038	0.596 ± 0.0014
PNVSYIEEKLNQ [MAS1 C-terminal 12 aa]	0.702 ± 0.015	0.717 ± 0.011
PPNTLWHYNFRK [MRPL28 C-terminal 12 aa]	0.751 ± 0.024	0.69 ± 0.018
PQGFEIIELLNF [ROM1 C-terminal 12 aa]	0.717 ± 0.044	0.718 ± 0.013

Sequence	protein stability index [1]	protein stability index (genetic background: wild type)
PRSDDEDDEDSE [FAP7 C-terminal 12 aa]	0.683 ± 0.026	0.671 ± 0.025
PSSDHAKSVMGE [YML101C-A C-terminal 12 aa]	0.707 ± 0.018	0.6804 ± 0.0044
PSTLIITTLLFK [YJR023C C-terminal 12 aa]	0.618 ± 0.051	0.61 ± 0.017
PSYCSLRWSHRT [YLR169W C-terminal 12 aa]	0.7331 ± 0.006	0.705 ± 0.029
PTPKALTNEKTH [MGR1 C-terminal 12 aa]	0.687 ± 0.017	0.664 ± 0.015
PTYDNNRHYGND [YFL032W C-terminal 12 aa]	0.671 ± 0.0083	0.702 ± 0.018
PVHLEAIDLIDC [HSP150 C-terminal 12 aa]	0.7087 ± 0.0034	0.714 ± 0.024
PVRMYALKPMPN [TAE1 C-terminal 12 aa]	0.6931 ± 0.0035	0.665 ± 0.04
PWFAPIREQIEK [CKA1 C-terminal 12 aa]	0.722 ± 0.011	0.7489 ± 0.0034
QAKEVFDKMQKE [FMP23 C-terminal 12 aa]	0.7133 ± 0.0026	0.686 ± 0.065
QARKSKSVSFYA [RPT5 C-terminal 12 aa]	0.693 ± 0.016	0.692 ± 0.027
QDMMSGFLGGSK [GET4 C-terminal 12 aa]	0.69072 ± 1.9e-05	0.667 ± 0.0077
QDNSEVVDLTSD [NFI1 C-terminal 12 aa]	0.694 ± 0.012	0.6728 ± 0.006
QGMLQSFLDREL [YOL057W C-terminal 12 aa]	0.721 ± 0.023	0.666 ± 0.042
QHSRGSPNNSNN [YKU80 C-terminal 12 aa]	0.701 ± 0.0071	0.708 ± 0.039
QIAGRYVVDTSK [ADH2 C-terminal 12 aa]	0.6869 ± 0.0057	0.6522 ± 0.0027
QINDLEIYRKRL [SNT309 C-terminal 12 aa]	0.6847 ± 0.006	0.68 ± 0.029
QKLGIIGKNDLK [PSD1 C-terminal 12 aa]	0.685 ± 0.029	0.709 ± 0.016
QKYQVYKNFETL [UTR4 C-terminal 12 aa]	0.7 ± 0.015	0.688 ± 0.0077
